From patent US20260258115A1 (MAPP BIOPHARMACEUTICAL, published 2026)

B1: ADI-41256 (antibody, V domains shown)
VH: QVQLVQSGAEVKSPGSSATVSCKASGGTFGSYGISWVRQAPGQGLEWIGAIMPMFGTTNYAQKFQGRVTMTADESTSTVYMDVSSLRPDDTAVYYCVRDVFYDILTGYYDADYYHHYMDVWGKGTTVTVSS
VL: DIVMTQSPLSLPVTLGQPASISCRSGQSLVHSDGNTYLNWFQQRPGQSPRRLIYKVSNRGSGVPDRFSGSGSGTDFTLKISRVEAEDVGVYFCMQGTHWPRTFGQGTKVDIK
notes: also called Ab 578; Antibody Number 578
B2: ADI-41302 (antibody, V domains shown)
VH: QVQLVESGGGVVQPGRSLRLSCAASGFTFSSYAMQWVRQAPGKGLEWVAVMTNDGDDKYYADSVRGRFTISRDNSKNTLYLQMNNLRPEDTAVYYCARDLFEWWELLGYCYAMDVWGQGTTVTVSS
VL: QSVLTQPPSASGSPGQSVTISCTGTSSDVGAYNYVSWYQQHPGKAPKLIIYEVYKRPSGVPDRFFGSKSGNTASLTVSGLQAEDEADYYCSSYAGSNTLGVFGGGTKVTVL
B3: ADI-41259 (antibody, V domains shown)
VH: QVQLVESGGRLVKPGGSLRLSCAASGFTFSDFYMSWIRQAPGKGLEWVSYISSSGDDPNYADSVKGRFTISRDNSKNSLYLQMNSLRAEDTAVYYCARDEVGWNNLDYYFGMDVWGQGTTVTVSS
VL: DIVMTQSPLSLPVTLGQPASISCRSSQSLVHSDGNTYLSWFHQRPGQSPRRLIYKVSNRDSGVPNRFSGGGSGTDFTLKISRVEAEDVGFFYCMQGTHWQKTFGQGTKVEIK
B4: ADI-41274 (antibody, V domains shown)
VH: EVQLVESGGGLVKPGGSLRLSCAASGFSFSSYAMNWVRQAPGKGLQWVSSISAGSSYIDYADSVKGRFTISRDNAENSLFLQMNSLRVEDTAVYYCARVGSYTHGYEFDYWGQGTLVTVSS
VL: QPVLTQPPSVSGAPGQRVTISCTGSNSNIGAGYDVHWYQQLPGTAPKLLIYASTIRPSGVPDRFSGSKSGTSASLAITGLQAEDEADYYCQSYDRNLSVVFGGGTKVTVL
notes: also called Ab 592; Antibody Number 592
B5: ADI-41208 (antibody, V domains shown)
VH: QVQLVESGGDLVKPGGSLRLSCAASGFTLSGHYMSWIRQPPGKGLEWVSSISGGSTYTNYADSVKGRFTISRDNAENSLYLQMNSLRAEDTAVYYCARLAYSDYGPFYFDLWGRGTLVTVSS
VL: QSVLTQPPSVSGAPGQRVTISCTGSSSNIGAGYDVHWYQQLTGTAPKLLIFDNNNRPSGVPDRFSGSKSGTSASLAITGLQAEDEADYYCQSYDSRLSAPYVFGTGTKLTVL
B6: ADI-41203 (antibody, V domains shown)
VH: QVQLVQSGAEVRKPGESLKISCKASGYRFTNYWIGWVRQMPGKGLEWMGVIYPGDSDTRYSPSFQGQVTMSADKSTNTAYLQWSSLKASDTAIYYCVSLYSDYDYGALDYWGQGTLVTVSS
VL: EIVMTQSPATLSVSPGERATLSCRASENVGRNLAWYQQKPGQAPRLLIYGASIRATGILARFSGSGSGTEYTLTISSLQSEDFAVYYCQQYHDWPSFTFGPGTKVDIK
B7: ADI-41501 (antibody, V domains shown)
VH: QVQLVQSGAEVKKPGSSVKVSCKASGGIFSDFAISWVRQAPGQGLEWMGGIITIIGTPEYAQKFQGRVRITADESTTTVFMELSRLTSEDTAVYYCARDSRYGSGWYWDHWGQGTLVTVSS
VL: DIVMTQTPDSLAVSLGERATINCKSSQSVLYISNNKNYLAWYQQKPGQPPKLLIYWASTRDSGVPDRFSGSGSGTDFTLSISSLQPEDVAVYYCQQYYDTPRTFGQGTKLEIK
notes: also called Ab 780; Antibody Number 780
B8: ADI-41521 (antibody, V domains shown)
VH: EVQLVESGGGLVQPGRSLRLSCAASGFTFDDFAMDWVRQVPGKGLEWVSGISWNGVSKDYAGSVKGRFTISRDNAKNSLYLQMNSLRAEDTALYFCAKARRDVYNWGDAFDIWGQGTMVTVSS
VL: DIRLTQSPGTLSLSPGERATLSCRASQPLNSNYLAWYRQKPGQAPRLLIFDASSRATGVPDRISGSGSGTDFTLTVSRLEPEDIAVYYCQQYASSPWTFGLGTKVEIK
B9: ADI-41491 (antibody, V domains shown)
VH: EVQLLESGGGLVQPGGSLRLSCAASGFTFSSYSMNWVRQAPGKGLEWVSYMSSDRSAIYYSDSVKDRFTISRDNAKNSLYLQMHSLRAEDTAVYYCARRYCSSTSCYRGLGYYYGMDVWGQGTTVTVSS
VL: SYELTQPPSVSVAPGQTARITCGGSNIGNKDVHWYQQKPGQAPVLVVYDDSDRPSGIPERFAGSNSGNTATLTISRVEAGDEADYYCQVWHSAGDHVVFGGGTKLTVL
B10: ADI-43644 (antibody, V domains shown)
VH: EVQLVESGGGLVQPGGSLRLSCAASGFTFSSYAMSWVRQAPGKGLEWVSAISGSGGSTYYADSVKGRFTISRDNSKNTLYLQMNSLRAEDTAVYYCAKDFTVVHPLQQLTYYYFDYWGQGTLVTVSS
VL: DIVLTQSPATLSLSPGERATLSCRASQSVSSYLAWYQQKPGQAPRLLIYDASNRATGIPARFSGSGSGTDFTLTISSLEPEDFAVYYCQQRSNWPPGFTFGGGTKVEIK
B11: ADI-41489 (antibody, V domains shown)
VH: EVQLVESGGGVVQPGRSLRLSCAASGFNFHNYAFHWVRQAPGKGLDWVAVTSYDGSSAFYADSVKGRFTISRDNSKKILYLQMTSLRAEDTALYYCARGSSSWSGDYFDYWGQGILVTVSS
VL: DIVMTQSPVTLSVSPGERATLSCRASQSVGSNLAWYQQKHGQTPRLLIYDASTRATSIPARFSGSGSGTEFTLTISSLQSEDFAVYYCQQYNKWPSYTFGQGTKVEIK
notes: also called Ab 770; Antibody Number 770
B12: ADI-41516 (antibody, V domains shown)
VH: EVQLLESGPRLVKPSETLSLTCIVSGGFISYDYWSWIRQPAGKGLEWIGRIYAGGIPKYNPSLKSRVTMSLDMSNNQFSLRLKSVTAADSAVYYCARAEPCSGDCFLGENPFDSWGQGTLVTVSS
VL: QSVLTQPPSASGTPGQRVTISCSGSSSSIGSNYVYWYQQLPGTAPKLLIHKDNERPSGVPDRFSGSKSGTSASLAISGLRSEDEGDYSCAAWDDSLSGWVFGGGTKLTVL
B13: ADI-41524 (antibody, V domains shown)
VH: EVQLVESGGGLVQPGRSLRLSCTGSGFTFGDYAISWFRQAPGKGLEWVGFIRSKPYGGTTEYAASVKGTFTISRDDSKSIAYLQMNSLKTGDTAVYFCTRGIWGITMIVPWSDPWGQGTLVTVSS
VL: DIVMTQTPLSLPVTPGEPASISCRSSQSLLHSNGFNYLAWYLQKPGQSPQLLIYLNSNRASGVPDRFSGSGSGTDFTLKISRVEAEDVGVYYCMQALQTPLTFGPGTKLEIK
B14: ADI-41517 (antibody, V domains shown)
VH: QVQLVQSGGGLVQPGGSLRLACAASGFTLSGYAMNWVRQAPGKGLEWVSSISGSGGSTYYADSVKGRFTTSRDNSKNTVFLHMNSLRAEDTAIYYCATVPWETGPFDHWGQGTLVTVSS
VL: QSVLTQPPSVSGAPGQRVTISCTGSSSNIGAGYAVHWYQQLPGTAPKLLIHGTTNRPSGVPDRFSGSKSGTSASLAITGLQAEDEADYYCQSYDSRLSGYVFGTGTKLTVL
B15: ADI-41457 (antibody, V domains shown)
VH: EVQLVESGGGLVRPGGSLRVSCAASGFTFIRYDMHWVRQAPGKGLEWVSGIGTAGDTYYAASVQGRFTISRENAKNSLYLQMSNLRPGDTAVYYCAGSMAATGIDQWGQGTLVTVSS
VL: EIVMTQSPLTLPVTPGEPASISCRSSQSLLHSNGFTYLDWFLQKPGQSPQLLIFLGSNRASGVPDRFSGSGSGTDFTLKISRVEAEDVGIYYCMQALQTPYTFGQGTKVEIK
notes: also called Ab 741; Antibody Number 741
B16: ADI-41523 (antibody, V domains shown)
VH: QVQLVQSGAEVKKPGESLRISCKGSGDTFSNYWIGWVRQMPGKGLEWMGIIYPGDSDTRYSPSFQGQVTFSADKSISTAYLQWSSLKASDTAMYYCVRQVGGVVVTDTDNYYYGMDVWGQGTTVTVSS
VL: DIRLTQSPSSLSASVGDRVTITCRASQSIRSYLNWYQQKPGKAPKLLIYSASSLQSGVPSRFSGSGSGTDFTLTISSLQPEDFATYYCQQSHSTPLTFGPGTKVDIK
B17: ADI-41476 (antibody, V domains shown)
VH: EVQLLESGGGLVQPGGSLRLSCATSGFRFTRYWMHWVRQAPGKGLEWVARINFDGTTTNYADSVKGRFTVSRDNAKNTLYLQINSLRAEDTAVYFCARDQTFLEWLPFESWGQGTLVTVSS
VL: QTVVTQEPSFSVSPGGTVTLTCGLTSGSVSTSYYPSWYQQTPGQAPRTLIYNTKTRFSGVPDRFSGSILGNKAALTITGAQADDESDYYCVLYMSGGMVFGGGTKLTVL

Each binder was assayed against RSV postfusion F (postF), F ΔFP trimer, subtype A (Respiratory Syncytial Virus, subtype A, UniProt P03420 26-513) (assay: BLI, IgG (Table 9A)).

Row | Binder | binding result
1 | B1 | no binding
2 | B2 | no binding
3 | B3 | no binding
4 | B4 | no binding
5 | B5 | no binding
6 | B6 | no binding

The binders below were run against RSV F on RSV-A2 virus (Respiratory Syncytial Virus (RSV-A2), UniProt P03420 26-574) (assay: cell-based or functional assay).

Row | Binder | Neutralization IC50 (RSV subtype A)
7 | B7 | > 25 µg/mL
8 | B8 | > 25 µg/mL
9 | B9 | > 25 µg/mL
10 | B10 | > 25 µg/mL
11 | B11 | > 25 µg/mL
12 | B12 | 0.08 µg/mL
13 | B13 | > 25 µg/mL
14 | B14 | 0.02 µg/mL
15 | B15 | > 25 µg/mL
16 | B16 | > 25 µg/mL
17 | B17 | > 25 µg/mL

The binders below were run against RSV F on RSV subtype A virus (RSV-A2) (Respiratory Syncytial Virus, subtype A, …, UniProt P03420 26-574) (assay: cell-based or functional assay).

Row | Binder | Neutralization - RSV A2 IC50 (pM) | neut IC50 (ug/ml) subtype A (wright)
18 | B1 | 85.8 pM | 0.019 µg/mL
19 | B2 | 133 pM | 0.006 µg/mL
20 | B3 | 122 pM | 0.015 µg/mL
21 | B4 | 26.6 pM | 0.109 µg/mL
22 | B5 | 310 pM | 0.077 µg/mL
23 | B6 | 23.9 pM | 0.006 µg/mL

What follows are binders tested against RSV prefusion F (preF), DS-Cav1 stabilized trimer, subtype A (Respiratory Syncytial Virus, subtype A, UniProt P03420 26-513) (assay: BLI, apparent IgG KD (Table 9A)).

Row | Binder | Kd
24 | B1 | 0.35 nM
25 | B2 | 0.65 nM
26 | B3 | 0.34 nM
27 | B4 | 0.48 nM
28 | B5 | 0.48 nM
29 | B6 | 0.4 nM

The binders below were run against RSV postfusion F (postF), F ΔFP (Respiratory Syncytial Virus, UniProt P03420 26-513) (assay: BLI, IgG on anti-human IgG sensor).

Row | Binder | binding result
30 | B7 | no binding
31 | B8 | no binding
32 | B9 | no binding
33 | B10 | no binding
34 | B11 | no binding
35 | B12 | no binding
36 | B13 | no binding
37 | B14 | no binding
38 | B15 | no binding
39 | B16 | no binding
40 | B17 | no binding

These binders were tested against RSV prefusion F (preF), DS-Cav1 (Respiratory Syncytial Virus, UniProt P03420 26-513) (assay: BLI, IgG on anti-human IgG sensor, 100 nM antigen, 1:1 fit).

Row | Binder | Kd
41 | B7 | 3.21 nM
42 | B8 | 1.68 nM
43 | B9 | 0.439 nM
44 | B10 | 29.3 nM
45 | B11 | 88 nM
46 | B12 | 0.414 nM
47 | B13 | 3.18 nM
48 | B14 | 0.501 nM
49 | B15 | 3.33 nM
50 | B16 | 2.91 nM
51 | B17 | 3.86 nM
